Experimental data: patent EP1117687B1

biological target: Mouse MHC Class I (mouse B6 class I antigens, H-2^b: D^b or K^b) on RMA-S cells (mouse); assay: RMA-S MHC stabilisation, flow cytometry with FITC anti-D^b or anti-K^b

Binding Affinity to Mouse MHC Class I (percent increase of D^b or K^b on RMA-S cells) [%]	Molecule
2	WT1 peptide P119-127 …
1	WT1 peptide P122-130 …
1	PNAPYLPSC [WT1 peptide P129-137 …]
1	APYLPSCLE [WT1 peptide P131-139 …]
1	QARMFPNAP [WT1 peptide P124-132 …]
1	SSGQARMFP [WT1 peptide P121-129 …]

The next lines start with the molecule.

Molecule	Binding Affinity to Mouse MHC Class I (percent increase of D^b or K^b on RMA-S cells) [%]
WT1 peptide P125-133 …	1
WT1 peptide P123-131 …	1
WT1 peptide P118-126 …	2
WT1 peptide P120-128 …	1
WT1 peptide P128-136 …	1
WT1 peptide p126-134 …	79
WT1 peptide P130-138 …	79
MFPNAPYLP [WT1 peptide P127-135 …]	2
PSQASSGQA [WT1 peptide P117-125 …]	2
